Like-named read-outs stand apart in the source and are kept apart here.
T1: human OX40 on cells (human, UniProt P43489 29-277)
T1 construct: whole, on cells; Stably transfected CHO cells (flow cytometry) and bought Jurkat reporter cells (OX40 bioassay); also called Flp-In-CHO::huOX40; human OX40-expressing CHO cells
T1 sequence (looked up): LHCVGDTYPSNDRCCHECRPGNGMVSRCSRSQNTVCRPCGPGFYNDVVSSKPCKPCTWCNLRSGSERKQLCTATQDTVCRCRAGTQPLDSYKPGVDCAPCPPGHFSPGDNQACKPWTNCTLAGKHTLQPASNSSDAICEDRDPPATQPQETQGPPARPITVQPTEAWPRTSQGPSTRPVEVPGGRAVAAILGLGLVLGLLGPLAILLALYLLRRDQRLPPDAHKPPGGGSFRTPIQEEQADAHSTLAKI

B1: bispecific multimeric protein SEQ ID NO: 54 (designed binder)
chain: QVQLVQSGAEVKKPGASVKVSCKASGYTFTDYEMHWVRQAPGQGLEWMGALDPKTGDTAYSQKFKGRVTLTADKSTSTAYMELSSLTSEDTAVYYCTRFYSYTYWGQGTLVTLVSSGGGGSGGGGSGGGGSGGGGSDVVMTQSPLSLPVTPGEPASISCRSSQSLVHSNRNTYLHWYLQKPGQSPQLLIYKVSNRFSGVPDRFSGSGSGTDFTLKISRVEAEDVGVYYCSQNTHVPPTFGQGTKLEIKGGGGSGGGGSGGGGSGVRLWATRQAMLGQVHEVPEGWLIFVAEQEELYVRVQNGFRKVQLEARTPLGGGGSGGGGSGGGGSQDSTSDLIPAPPLSKVPLQQNFQDNQFHGKWYVVGQAGNIRLREDKDPIKMMATIYELKEDKSYDVTMVKFDDKKCMYDIWTFVPGSQPGEFTLGKIKSFPGHTSSLVRVVSTNYNQHAMVFFKFVFQNREEFYITLYGRTKELTSELKENFIRFSKSLGLPENHIVFPVPIDQCIDGGGSGGAPEQKLISEEDLGSHHHHHHHHHH
B2: multimeric protein SEQ ID NO: 40 (designed binder)
chain: QDSTSDLIPAPPLSKVPLQQNFQDNQFHGKWYVVGQAGNIRLREDKDPIKMMATIYELKEDKSYDVTMVKFDDKKCMYDIWTFVPGSQPGEFTLGKIKSFPGHTSSLVRVVSTNYNQHAMVFFKFVFQNREEFYITLYGRTKELTSELKENFIRFSKSLGLPENHIVFPVPIDQCIDGGGGGSGGGGSGGGGSGGGGSGGGGSGVRLWATRQAMLGQVHEVPEGWLIFVAEQEELYVRVQNGFRKVQLEARTPLGGSGGAPEQKLISEEDLGSHHHHHHHHHH
B3: 4-1BB-specific lipocalin mutein SEQ ID NO: 64 (designed binder)
chain: QDSTSDLIPAPPLSKVPLQQNFQDNQFHGKWYVVGQAGNIRLREDKDPIKMMATIYELKEDKSYDVTMVKFDDKKCMYDIWTFVPGSQPGEFTLGKIKSFPGHTSSLVRVVSTNYNQHAMVFFKFVFQNREEFYITLYGRTKELTSELKENFIRFSKSLGLPENHIVFPVPIDQCIDG
notes: Monomeric hNGAL mutein; also called 4-1BB-targeting lipocalin mutein as included in the multimeric proteins
B4: bispecific hexavalent trimeric protein SEQ ID NO: 164 (designed binder)
chain: QDSTSDLIPAPPLSKVPLQQNFQDNQFHGKWYVVGQAGNIRLREDKDPIKMMATIYELKEDKSYDVTMVKFDDKKCMYDIWTFVPGSQPGEFTLGKIKSFPGHTSSLVRVVSTNYNQHAMVFFKFVFQNREEFYITLYGRTKELTSELKENFIRFSKSLGLPENHIVFPVPIDQCIDGGGGGSGGGGSGGGGSGVRLWATRQAMLGQVHEVPEGWLIFVAEQEELYVRVQNGFRKVQLEARTPLGGGGSGGGGSGGGGSQDSTSDLIPAPPLSKVPLQQNFQDSQFQGKWYVVGFAGNYRLREDKDPGKMQATIYELREDKAYQVTGVLFPHKKCHDDIVIFVPGSQPGEFILGWIKSDPGITSDLVRVVSTDYNQHAMVFFKWVFQNREWFYITLYGRTKALTSELKENFIRFSKSLGLPEDHIVFPVPIDQCIDGGGSGGAPEQKLISEEDLGSHHHHHHHHHH

Experiments:
[1] = molecular target: T2, cynomolgus 4-1BB on CHO cells (cynomolgus, UniProt A9YYE7 24-254); experiment: flow cytometry, Flp-In-CHO::cyno4-1BB cells
T2 construct: also called Flp-In-CHO::cyno4-1BB; cynomolgus 4-1BB-expressing CHO cells
Experimental: (§1) CHO cells were stably transfected with human 4-1BB, cynomolgus 4-1BB, or a mock control using the Flp-In system (Life Technologies) according to the manufacturer's instructions. Transfected CHO cells were maintained in Ham's F12 medium (Life Technologies) supplemented with 10% Fetal Calf Serum (Biochrom) and 500 μg/ml Hygromycin B (Roth). Cells were cultured in cell culture flasks according to manufacturer's instruction (37° C., 5% CO₂ atmosphere).
(§2) 5×10⁴ cells per well were incubated for 1 h in ice-cold PBS containing 5% fetal calf serum (PBS-FCS). A dilution series of the tested multimeric proteins (SEQ ID NOs: 38-44 and 46-55), the 4-1BB-targeting lipocalin mutein as included in the multimeric proteins (SEQ ID NO: 64) or the GPC3-targeting lipocalin SEQ ID NO: 90 were added to the cells and incubated for 1 h on ice. Cells were washed twice with PBS and then incubated with a rabbit anti-NGAL or a goat anti-human IgG labeled with fluorescent dye Alexa 488 for 30 min on ice. Human IgG4 isotype (SEQ ID NOs: 29 and 30) and lipocalin mutein SEQ ID NO: 8 were tested as a negative control. Cells were subsequently washed and analyzed using iQue Flow cytometer (Intellicyte Screener). Mean geometric fluorescent signals were plotted and fitted with Graphpad software using nonlinear regression (shared bottom, four parameters, variable slope).

[2] = molecular target: T3, hu4-1BB-Fc (R&D Systems) (human, UniProt Q07011 24-186); experiment: SPR (Biacore 8K), hu4-1BB-Fc captured by anti-human IgG Fc; apparent value, 1:1 fit
T3 construct: Bought; also called human 4-1BB; not shown: human IgG Fc of the bought fusion
Experimental: The anti-human IgG Fc antibody (GE Healthcare) was immobilized on a CM5 sensor chip using standard amine chemistry: the carboxyl groups on the chip were activated using 1-ethyl-3-(3-dimethylaminopropyl)-carbodiimide (EDC) and N-hydroxysuccinimide (NHS). Subsequently, anti-human IgG Fc antibody solution (GE Healthcare) at a concentration of 25 μg/mL in 10 mM sodium acetate (pH 5.0) was applied at a flow rate of 5 μL/min until an immobilization level of 4000-10000 resonance units (RU) was achieved. Residual non-reacted NHS-esters were blocked by passing a solution of 1 M ethanolamine across the surface. The reference channel was treated in an analogous manner. Subsequently, hu4-1BB-Fc (R&D Systems) at 0.3 μg/mL was captured by the anti-human IgG-Fc antibody at the chip surface for 180 s at a flow rate of 10 μL/min.
The binding assay was carried out with a contact time of 180 s, a dissociation time of 1200 s or 3000 s and a flow rate of 30 μL/min. All measurements were performed at 25° C. Lipocalin mutein SEQ ID NO: 64 as included in the multimeric proteins was also tested as […]. […] Prior to the protein measurements, three startup cycles were performed for conditioning purposes. Data were evaluated with Biacore Evaluation software. Double referencing was used and the 1:1 binding model was used to fit the raw data.

[3] = molecular target: T4, human 4-1BB on cells (human, UniProt Q07011 24-255); experiment: flow cytometry, Flp-In-CHO::hu4-1BB cells
T4 construct: whole, on cells; Stably transfected CHO cells (flow cytometry) and bought Jurkat reporter cells (bioassay); also called Flp-In-CHO::hu4-1BB; human 4-1BB-expressing CHO cells
Experimental: as §1, §2

[4] = molecular target: T4, human 4-1BB on cells; experiment: cell-based or functional assay
[5] = molecular target: T5, huGPC3-His (human GPC3 with C-terminal polyhistidine tag, R&D Systems) (human, UniProt P51654 25-559, limits assumed); experiment: ELISA, huGPC3-His coated, detection anti-NGAL-HRP
T5 construct: Bought; not shown: C-terminal polyhistidine tag
Experimental: (§3) Recombinant hu4-1BB-His (human 4-1BB with a C-terminal polyhistidine tag, R&D Systems) at the concentration of 1 μg/mL in PBS was coated overnight on microtiter plates at 4° C. After washing with PBS-0.05% T (PBS supplemented with 0.05% (v/v) Tween 20), the plates were blocked with 2% BSA (w/v) in PBS-0.1% T (PBS supplemented with 0.1% (v/v) Tween 20) for 1 h at room temperature. After washing with 100 μL PBS-0.05% T five times, exemplary multimeric proteins (SEQ ID NOs: 38-44 and 46-53) or 4-1BB-specific lipocalin mutein as included in the multimeric protein (SEQ ID NO: 64) at different concentrations, ranging from 100 to 0.002 nM, were added to the wells and incubated for 1 h at room temperature, followed by another wash step. Bound molecules under study were detected by incubation with 1:1000 diluted anti-NGAL-HRP in PBS-0.1% T-2% BSA. After an additional wash step, fluorogenic HRP substrate (QuantaBlu, Thermo) was added to each well and the fluorescence intensity was detected using a fluorescence microplate reader.
The same ELISA setup was also employed to determine the binding potency of exemplary bispecific multimeric proteins (SEQ ID NO: 54 and SEQ ID NO: 55) to GPC3, where huGPC3-His (human GPC3 with C-terminal polyhistidine tag, R&D Systems) was instead coated on a microtiter plate. The testing agents were similarly titrated and bound agents detected.

[6] = molecular target: T6, human GPC3 on HepG2 cells (human, UniProt P51654 25-554); experiment: flow cytometry, HepG2 cells
T6 construct: whole, on cells; Endogenous GPC3 of the tumor cell line; also called GPC3-positive tumor cell line HepG2; human GPC3-expressing HepG2 cells
Experimental: (§4) GPC3-positive tumor cell line HepG2 was cultured in Dulbecco's Modified Eagle's Medium ([…], Pan Biotech) supplemented with 10% Fetal Calf Serum (Sigma-Aldrich) and in cell culture flasks according to manufacturer's instruction (37° C., 5% CO₂ atmosphere).
as §2

[7] = molecular target: T5, huGPC3-His (human GPC3 with C-terminal …); experiment: dual-binding ELISA, huGPC3-His coated, detection with biotinylated hu4-1BB-His and Extravidin-HRP
Experimental: Recombinant huGPC3-His (human GPC3 with C-terminal polyhistidine tag, R&D Systems) at the concentration of 1 μg/mL in PBS was coated overnight on microtiter plates at 4° C. After washing with PBS-0.05% T (PBS supplemented with 0.05% (v/v) Tween 20), the plates were blocked with 2% BSA (w/v) in PBS-0.1% T (PBS supplemented with 0.1% (v/v) Tween 20) for 1 h at room temperature. After washing with 100 μL PBS-0.05% T five times, exemplary multimeric proteins (SEQ ID NOs: 54 and 55) at different concentrations, ranging from 100 to 0.002 nM, were added to the wells and incubated for 1 h at room temperature, followed by another wash step. Bound molecules under study were detected by incubation with 1 μg/mL recombinant hu4-1BB-His (biotinylated human 4-1BB with C-terminal polyhistidine tag, Sino Biological) in PBS-0.1% T-2% BSA for 1 h. This step was followed by a further wash step and incubation with 1:5000 diluted Extravidin-HRP in PBS-0.1% T-2% BSA. After an additional wash step, fluorogenic HRP substrate (QuantaBlu, Thermo) was added to each well and the fluorescence intensity was detected using a fluorescence microplate reader.

[8] = molecular target: T2, cynomolgus 4-1BB on CHO cells; experiment: flow cytometry on Flp-In-CHO::cyCD137 (cynomolgus 4-1BB) cells, anti-NGAL detection, GeoMean BL1-H [Cont'd) B]
Experimental: as §1, §2

[9] = molecular target: T4, human 4-1BB on cells; experiment: flow cytometry on Flp-In-CHO::huCD137 (human 4-1BB) cells, anti-NGAL detection, GeoMean BL1-H
Experimental: as §1, §2

[10] = molecular target: T7, recombinant hu4-1BB-His (human 4-1BB with a C-terminal polyhistidine tag, R&D Systems) (human, UniProt Q07011 24-186); experiment: ELISA, hu4-1BB-His coated, detection anti-NGAL-HRP
T7 construct: Bought; not shown: C-terminal polyhistidine tag
Experimental: as §3
The results of exemplary experiments are depicted in FIG. 2, together with the fit curves resulting from a 1:1 binding sigmoidal fit, where the EC₅₀ value and the maximum signal were free parameters, and the slope was fixed to one. The observed EC₅₀ values toward the hu4-1BB of all tested multimeric proteins were in the sub nanomolar range.

[11] = molecular target: T6, human GPC3 on HepG2 cells; experiment: flow cytometry on HepG2 cells (human GPC3), anti-NGAL detection, GeoMean BL1-H [Cont'd) C]
Experimental: as §4, §2

[12] = molecular target: T4, human 4-1BB on cells; experiment: flow cytometry, Flp-In-CHO::hu4-1BB cells; remark: listed apart in the source
Experimental: as §2
(§5) Target-specific binding of hexavalent trimeric proteins to human 4-1BB-, OX40- or PD-L1-expressing cells was assessed by flow cytometry as described in Example 5, using CHO cells stably transfected with human 4-1BB, human OX40 or human PD-L1 (Flp-In system; Life Technologies).

[13] = molecular target: T1, human OX40 on cells; experiment: flow cytometry, Flp-In-CHO::huOX40 cells
Experimental: as §2, §5

T4 sequence (Q07011 24-255): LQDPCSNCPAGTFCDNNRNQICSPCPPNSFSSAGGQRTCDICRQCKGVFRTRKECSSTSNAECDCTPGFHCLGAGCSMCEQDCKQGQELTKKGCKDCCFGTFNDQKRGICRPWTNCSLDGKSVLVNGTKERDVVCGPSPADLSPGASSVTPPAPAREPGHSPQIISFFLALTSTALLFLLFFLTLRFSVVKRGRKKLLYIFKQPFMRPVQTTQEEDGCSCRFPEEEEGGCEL
T2 sequence (A9YYE7 entry or part of it limits assumed): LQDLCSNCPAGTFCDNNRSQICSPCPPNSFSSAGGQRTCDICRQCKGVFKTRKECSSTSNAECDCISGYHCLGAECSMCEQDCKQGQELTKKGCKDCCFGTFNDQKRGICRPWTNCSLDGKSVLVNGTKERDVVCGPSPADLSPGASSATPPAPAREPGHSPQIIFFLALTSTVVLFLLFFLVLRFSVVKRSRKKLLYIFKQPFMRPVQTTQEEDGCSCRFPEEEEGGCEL
T5 sequence (P51654 25-559 limits assumed): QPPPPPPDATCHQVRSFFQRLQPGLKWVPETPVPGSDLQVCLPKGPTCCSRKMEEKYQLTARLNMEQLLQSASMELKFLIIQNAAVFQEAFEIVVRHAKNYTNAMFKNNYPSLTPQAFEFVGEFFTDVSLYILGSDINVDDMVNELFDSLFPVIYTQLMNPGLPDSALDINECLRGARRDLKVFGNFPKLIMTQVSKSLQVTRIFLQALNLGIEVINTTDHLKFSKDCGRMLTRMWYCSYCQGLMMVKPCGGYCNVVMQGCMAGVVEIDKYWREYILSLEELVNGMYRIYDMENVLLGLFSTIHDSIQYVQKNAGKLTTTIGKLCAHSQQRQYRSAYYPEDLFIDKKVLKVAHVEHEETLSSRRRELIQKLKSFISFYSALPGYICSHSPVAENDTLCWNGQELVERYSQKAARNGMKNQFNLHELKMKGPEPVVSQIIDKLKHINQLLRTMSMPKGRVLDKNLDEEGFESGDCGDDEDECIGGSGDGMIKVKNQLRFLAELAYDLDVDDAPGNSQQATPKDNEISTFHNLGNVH
T6 sequence (P51654 25-554 limits assumed): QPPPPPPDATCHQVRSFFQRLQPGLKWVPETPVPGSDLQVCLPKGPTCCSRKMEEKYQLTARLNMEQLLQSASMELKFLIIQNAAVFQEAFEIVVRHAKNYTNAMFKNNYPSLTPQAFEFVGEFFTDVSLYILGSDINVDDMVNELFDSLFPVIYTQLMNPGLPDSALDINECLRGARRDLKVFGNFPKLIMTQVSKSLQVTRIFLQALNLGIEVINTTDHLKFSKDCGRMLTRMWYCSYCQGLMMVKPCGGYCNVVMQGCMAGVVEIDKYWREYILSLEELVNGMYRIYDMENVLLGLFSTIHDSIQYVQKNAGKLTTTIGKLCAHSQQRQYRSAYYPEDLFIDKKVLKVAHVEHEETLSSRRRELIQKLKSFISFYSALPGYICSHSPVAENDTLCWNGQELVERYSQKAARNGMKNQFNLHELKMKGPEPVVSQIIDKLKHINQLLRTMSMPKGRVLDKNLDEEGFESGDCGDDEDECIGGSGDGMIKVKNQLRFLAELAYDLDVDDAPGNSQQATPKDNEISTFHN

EC50 [1] | Kd [2] | koff [2] | kon [2] | EC50 [3] | EC50 [nM], 4-1BB bioassay (NFκB-luc2/4-1BB Jurkat luminescence), with HepG2 cells [4] | EC50 [5] | EC50 [6] | EC50 [7] | EC50 (read off the curve) [8] | EC50 (read off the curve) [9] | EC50 [10] | binding result [1] | binding result [11] | EC50 [12] | EC50 [13] | Binder
5.99 nM | 0.26 nM | 1.99e-05 s⁻¹ | 77900 M⁻¹ s⁻¹ | 5.49 nM | 0.38 nM | 0.15 nM | 3.07 nM | 0.63 nM |  |  |  |  |  |  |  | B1
 | 1.18 nM | 9.75e-05 s⁻¹ | 82300 M⁻¹ s⁻¹ |  |  |  |  |  | ~1 nM | ~2 nM | 0.18 nM |  |  |  |  | B2
 | 0.76 nM | 7.08e-05 s⁻¹ | 92700 M⁻¹ s⁻¹ | 3.99 nM |  |  |  |  |  |  | 0.41 nM | no binding | no binding (tested: about 200 nM) |  |  | B3
 |  |  |  |  |  |  |  |  |  |  |  |  |  | 3.03 nM | 0.71 nM | B4

Reference: US20230227568A1 (Pieris, published 2023)
